B1: CmPKS promoter P1 probe (dsDNA)
DNA 1: TCATATGATTGTTGATAAATATGTTTTCCCAGTGA
DNA 2: TCACTGGGAAAACATATTTATCAACAATCATATGA
B2: CmPKS promoter P2 probe (dsDNA)
DNA 1: CGCAGCTGAGGGTATTGATAGCCGTGATCGAACCC
DNA 2: GGGTTCGATCACGGCTATCAATACCCTCAGCTGCG

How the values were obtained:
[1] = molecular target: T1, CmWC-1 (white collar-1) (Cordyceps militaris, UniProt G3J3J5 1-963); assay: EMSA; LightShift EMSA Kit (Thermo 20148); cold competitor 50x; proteins recovered in 1x PBS; binding buffer, salt, pH and temperature not stated; details: protein: recombinant; tags: His (pCOLD I); label: biotin on both strands (5'); blunt
T1 sequence: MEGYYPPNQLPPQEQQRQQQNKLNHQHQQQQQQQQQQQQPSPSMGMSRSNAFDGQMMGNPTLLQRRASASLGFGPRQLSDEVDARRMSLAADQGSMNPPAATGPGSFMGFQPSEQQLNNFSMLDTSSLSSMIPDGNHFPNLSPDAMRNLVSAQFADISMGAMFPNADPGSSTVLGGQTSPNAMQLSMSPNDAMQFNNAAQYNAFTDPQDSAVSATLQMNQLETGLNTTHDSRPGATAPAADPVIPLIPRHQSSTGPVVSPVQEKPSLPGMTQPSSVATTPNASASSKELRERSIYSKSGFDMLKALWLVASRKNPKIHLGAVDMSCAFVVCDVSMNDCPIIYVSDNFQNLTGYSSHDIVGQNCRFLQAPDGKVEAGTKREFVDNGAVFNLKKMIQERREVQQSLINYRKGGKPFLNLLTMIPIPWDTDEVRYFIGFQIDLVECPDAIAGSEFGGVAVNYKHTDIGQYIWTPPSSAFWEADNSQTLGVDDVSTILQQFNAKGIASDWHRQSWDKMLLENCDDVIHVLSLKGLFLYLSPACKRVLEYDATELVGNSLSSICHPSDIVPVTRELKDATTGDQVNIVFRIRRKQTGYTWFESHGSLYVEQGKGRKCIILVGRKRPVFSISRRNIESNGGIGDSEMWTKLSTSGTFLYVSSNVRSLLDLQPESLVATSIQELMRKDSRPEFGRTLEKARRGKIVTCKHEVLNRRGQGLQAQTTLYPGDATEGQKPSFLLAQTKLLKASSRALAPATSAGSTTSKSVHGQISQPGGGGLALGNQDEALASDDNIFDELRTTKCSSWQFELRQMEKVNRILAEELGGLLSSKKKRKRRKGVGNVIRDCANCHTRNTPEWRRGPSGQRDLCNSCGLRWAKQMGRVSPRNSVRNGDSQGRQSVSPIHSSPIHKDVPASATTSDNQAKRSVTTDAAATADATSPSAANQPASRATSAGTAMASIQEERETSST

[2] = molecular target: T2, CmWC-3 (zinc-finger domain-containing protein, GATA-type) (Cordyceps militaris, UniProt G3J672 1-188); assay: as above; details: protein: recombinant; tags: GST (pGEX-6P-1); label: biotin on both strands (5'); blunt
T2 sequence: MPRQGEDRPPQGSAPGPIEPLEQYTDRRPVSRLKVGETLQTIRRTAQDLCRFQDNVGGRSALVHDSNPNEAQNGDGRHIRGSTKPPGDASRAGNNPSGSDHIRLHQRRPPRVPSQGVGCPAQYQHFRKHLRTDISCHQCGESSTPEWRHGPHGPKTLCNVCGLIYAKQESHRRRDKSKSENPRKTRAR

Binder	binding result [1]	binding result [2]
B1	no binding	binds
B2	no binding	binds

— PMC10126257, “Genome resequencing and transcriptome analysis reveal the molecular mechanism of albinism in Cordyceps militaris”
